From patent US20200283537A1 (published 2020)

B1: BaCa-3 (dual-variable-domain bispecific, lexatumumab variable domains outer, farletuzumab inner) (bispecific antibody)
heavy: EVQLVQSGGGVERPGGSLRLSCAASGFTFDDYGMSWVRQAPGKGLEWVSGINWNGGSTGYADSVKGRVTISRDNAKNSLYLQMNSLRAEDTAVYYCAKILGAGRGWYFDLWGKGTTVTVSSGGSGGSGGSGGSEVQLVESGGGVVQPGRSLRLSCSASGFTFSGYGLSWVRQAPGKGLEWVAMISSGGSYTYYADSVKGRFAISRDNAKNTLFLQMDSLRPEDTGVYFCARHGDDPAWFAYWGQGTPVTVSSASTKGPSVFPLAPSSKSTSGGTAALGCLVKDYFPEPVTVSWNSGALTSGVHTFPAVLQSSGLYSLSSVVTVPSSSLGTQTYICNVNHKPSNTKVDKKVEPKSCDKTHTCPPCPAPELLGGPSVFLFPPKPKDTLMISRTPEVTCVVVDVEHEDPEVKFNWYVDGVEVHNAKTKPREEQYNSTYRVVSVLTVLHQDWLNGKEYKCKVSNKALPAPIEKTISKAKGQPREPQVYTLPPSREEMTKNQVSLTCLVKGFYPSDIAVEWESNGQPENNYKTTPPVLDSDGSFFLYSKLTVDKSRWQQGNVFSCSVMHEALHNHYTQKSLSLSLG
light: SSELTQDPAVSVALGQTVRITCQGDSLRSYYASWYQQKPGQAPVLVIYGKNNRPSGIPDRFSGSSSGNTASLTITGAQAEDEADYYCNSRDSSGNHVVFGGGTKLTVLGGSGGSGGSGGSDIQLTQSPSSLSASVGDRVTITCSVSSSISSNNLHWYQQKPGKAPKPWIYGTSNLASGVPSRFSGSGSGTDYTFTISSLQPEDIATYYCQQWSSYPYMYTFGQGTKVEIKRTVAAPSVFIFPPSDEQLKSGTASVVCLLNNFYPREAKVQWKVDNALQSGNSQESVTEQDSKDSTYSLSSTLTLSKADYEKHKVYACEVTHQGLSSPVTKSFNRGEC
B2: BaCa-2 (knob/hole single-chain-linked bispecific, monovalent anti-FOLR1 and anti-DR5) (bispecific antibody)
chain 1: not shown
chain 2: SSELTQDPAVSVALGQTVRITCQGDSLRSYYASWYQQKPGQAPVLVIYGKNNRPSGIPDRFSGSSSGNTASLTITGAQAEDEADYYCNSRDSSGNHVVFGGGTKLTVLRTVAAPSVFIFPPSDEQLKSGTASVVCLLNNFYPREAKVQWKVDNALQSGNSQESVTEQDSKDSTYSLSSTLTLSKADYEKHKVYACEVTHQGLSSPVTKSFNRGECGGGGSGGGGSGGGGSGGGGSGGGGSGGGGSGGGGSGGGGSGGGGSGGGGSEVQLVQSGGGVERPGGSLRLSCAASGFTFDDYGMSWVRQAPGKGLEWVSGINWNGGSTGYADSVKGRVTISRDNAKNSLYLQMNSLRAEDTAVYYCAKILGAGRGWYFDLWGKGTTVTVSSASTKGPSVFPLAPSSKSTSGGTAALGCLVKDYFPEPVTVSWNSGALTSGVHTFPAVLQSSGLYSLSSVVTVPSSSLGTQTYICNVNHKPSNTKVDKRVEPKSCDKTHTCPPCPAPELLGGPSVFLFPPKPKDTLMISRTPEVTCVVVDVSHEDPEVKFNWYVDGVEVHNAKTKPREEQYNSTYRVVSVLTVLHQDWLNGKEYKCKVSNKALPAPIEKTISKAKGQPREPQVYTLPPSREEMTKNQVSLTCLVKGFYPSDIAVEWESNGQPENNYKTTPPVLDSDGSFFLTSKLTVDKSRWQQGNVFSCSVMHEALHNRFTQKSLSLSPG
B3: Farletuzumab (humanized anti-FOLR1 monoclonal antibody), recombinant human IgG1 (antibody, V domains shown)
VH: EVQLVESGGGVVQPGRSLRLSCSASGFTFSGYGLSWVRQAPGKGLEWVAMISSGGSYTYYADSVKGRFAISRDNAKNTLFLQMDSLRPEDTGVYFCARHGDDPAWFAYWGQGTPVTVSS
VL: DIQLTQSPSSLSASVGDRVTITCSVSSSISSNNLHWYQQKPGKAPKPWIYGTSNLASGVPSRFSGSGSGTDYTFTISSLQPEDIATYYCQQWSSYPYMYTFGQGTKVEIKR
B4: Lexatumumab (anti-TRAIL-R2/DR5 antibody), recombinant human IgG1 (antibody, V domains shown)
VH: EVQLVQSGGGVERPGGSLRLSCAASGFTFDDYGMSWVRQAPGKGLEWVSGINWNGGSTGYADSVKGRVTISRDNAKNSLYLQMNSLRAEDTAVYYCAKILGAGRGWYFDLWGKGTTVTVSS
VL: SSELTQDPAVSVALGQTVRITCQGDSLRSYYASWYQQKPGQAPVLVIYGKNNRPSGIPDRFSGSSSGNTASLTITGAQAEDEADYYCNSRDSSGNHVVFGGGTKLTVLG
B5: BaCa-1 (Bispecific-Anchored Cytotoxicity-Activator-1; farletuzumab IgG1 with a lexatumumab scFv at the C-terminus of the heavy chain) (bispecific antibody)
heavy: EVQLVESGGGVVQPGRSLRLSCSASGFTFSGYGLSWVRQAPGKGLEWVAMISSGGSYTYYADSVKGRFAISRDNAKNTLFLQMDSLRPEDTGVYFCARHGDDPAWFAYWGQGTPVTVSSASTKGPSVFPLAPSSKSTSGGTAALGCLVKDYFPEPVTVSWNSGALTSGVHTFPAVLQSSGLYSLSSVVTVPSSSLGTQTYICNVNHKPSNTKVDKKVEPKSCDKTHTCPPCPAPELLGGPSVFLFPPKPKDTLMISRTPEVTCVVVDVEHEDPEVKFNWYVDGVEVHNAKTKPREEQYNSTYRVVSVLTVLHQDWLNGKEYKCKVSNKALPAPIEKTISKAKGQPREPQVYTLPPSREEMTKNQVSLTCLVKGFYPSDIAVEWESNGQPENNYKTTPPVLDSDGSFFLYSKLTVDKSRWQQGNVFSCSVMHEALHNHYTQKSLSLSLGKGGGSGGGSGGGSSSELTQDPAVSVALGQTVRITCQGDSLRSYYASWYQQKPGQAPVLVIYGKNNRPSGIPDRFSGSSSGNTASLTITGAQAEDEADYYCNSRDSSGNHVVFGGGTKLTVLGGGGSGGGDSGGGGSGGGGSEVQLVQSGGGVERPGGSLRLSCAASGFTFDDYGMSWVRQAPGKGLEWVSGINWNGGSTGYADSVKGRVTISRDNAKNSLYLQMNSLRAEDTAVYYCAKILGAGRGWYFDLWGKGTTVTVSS
light: DIQLTQSPSSLSASVGDRVTITCSVSSSISSNNLHWYQQKPGKAPKPWIYGTSNLASGVPSRFSGSGSGTDYTFTISSLQPEDIATYYCQQWSSYPYMYTFGQGTKVEIKRTVAAPSVFIFPPSDEQLKSGTASVVCLLNNFYPREAKVQWKVDNALQSGNSQESVTEQDSKDSTYSLSSTLTLSKADYEKHKVYACEVTHQGLSSPVTKSFNRGEC
B6: BaCa antibody with LALA-Fc (L234A-L235A) mutations in the CH2 domain (bispecific antibody)
heavy: EVQLVESGGGVVQPGRSLRLSCSASGFTFSGYGLSWVRQAPGKGLEWVAMISSGGSYTYYADSVKGRFAISRDNAKNTLFLQMDSLRPEDTGVYFCARHGDDPAWFAYWGQGTPVTVSSASTKGPSVFPLAPSSKSTSGGTAALGCLVKDYFPEPVTVSWNSGALTSGVHTFPAVLQSSGLYSLSSVVTVPSSSLGTQTYICNVNHKPSNTKVDKKVEPKSCDKTHTCPPCPAPEAAGGPSVFLFPPKPKDTLMISRTPEVTCVVVDVEHEDPEVKFNWYVDGVEVHNAKTKPREEQYNSTYRVVSVLTVLHQDWLNGKEYKCKVSNKALPAPIEKTISKAKGQPREPQVYTLPPSREEMTKNQVSLTCLVKGFYPSDIAVEWESNGQPENNYKTTPPVLDSDGSFFLYSKLTVDKSRWQQGNVFSCSVMHEALHNHYTQKSLSLSLGKGGGSGGGSGGGSSSELTQDPAVSVALGQTVRITCQGDSLRSYYASWYQQKPGQAPVLVIYGKNNRPSGIPDRFSGSSSGNTASLTITGAQAEDEADYYCNSRDSSGNHVVFGGGTKLTVLGGGGSGGGDSGGGGSGGGGSEVQLVQSGGGVERPGGSLRLSCAASGFTFDDYGMSWVRQAPGKGLEWVSGINWNGGSTGYADSVKGRVTISRDNAKNSLYLQMNSLRAEDTAVYYCAKILGAGRGWYFDLWGKGTTVTVSS
light: B5 light

Assays:
[1] = molecular target: T1, Recombinant FOLR1 (rFOLR1), extracellular domain of folate receptor alpha-1 fused to IgG4-Fc; assay: ELISA
[2] = molecular target: T2, Recombinant DR5 (rDR5), extracellular domain of DR5/TRAIL-R2 fused to IgG4-Fc; assay: ELISA
[3] = molecular target: T1, Recombinant FOLR1 (rFOLR1), …; assay: BLI
[4] = molecular target: T1, Recombinant FOLR1 (rFOLR1), …; assay: BLI; remark: listed apart in the source
[5] = molecular target: T1, Recombinant FOLR1 (rFOLR1), …; assay: ELISA; remark: listed apart in the source
[6] = molecular target: T2, Recombinant DR5 (rDR5), extracellular …; assay: BLI
[7] = molecular target: T2, Recombinant DR5 (rDR5), extracellular …; assay: BLI; remark: listed apart in the source
[8] = molecular target: T2, Recombinant DR5 (rDR5), extracellular …; assay: ELISA; remark: listed apart in the source
[9] = molecular target: T2, Recombinant DR5 (rDR5), extracellular …; assay: ELISA; remark: listed apart in the source
[10] = molecular target: T2, Recombinant DR5 (rDR5), extracellular …; assay: BLI; remark: listed apart in the source
[11] = molecular target: T2, Recombinant DR5 (rDR5), extracellular …; assay: BLI; remark: listed apart in the source
[12] = molecular target: T2, Recombinant DR5 (rDR5), extracellular …; assay: ELISA; remark: listed apart in the source

Binder	Kd [1] [nM]	Kd [2] [nM]	Kd [3] [nM]	Kd [4] [nM]	Kd [5] [nM]	Kd [12] [nM]	also measured
B1	0.392	0.538	–	–	–	–	–
B2	0.0887	1.08	–	–	–	–	–
B3	0.42	–	15	15	0.985	–	–
B4	–	–	–	–	–	–	Kd [6]: 3.3 nM; Kd [7]: 3.3 nM; Kd [8]: 1.26 nM; Kd [9]: 0.518 nM
B5	0.61	0.73	12	12	1.21	1.41	Kd [10]: 3.1 nM; Kd [11]: 3.1 nM
B6	–	–	–	–	0.904	1.65	–
